# According to the DeepSol protein solubility set:
# Test: soluble on expression in E. coli; label from the status in PepcDB or PDB records
row,Sequence,soluble on expression in E. coli
1,MAEKKLEENPYDLDAWSILIREAQNQPIDKARKTYERLVAQFPSSGRFWKLYIEAEIKAKNYDKVEKLFQRCLMKVLHIDLWKCYLSYVRETKGKLPSYKEKMAQAYDFALDKIGMEIMSYQIWVDYINFLKGVEAVGSYAENQRITAVRRVYQRGCVNPMINIEQLWRDYNKYEEGINIHLAKKMIEDRSRDYMNARRVAKEYETVMKGLDRNAPSVPPQNTPQEAQQVDMWKKYIQWEKSNPLRTEDQTLITKRVMFAYEQCLLVLGHHPDIWYEAAQYLEQSSKLLAEKGDMNNAKLFSDEAANIYERAISTLLKKNMLLYFAYADYEESRMKYEKVHSIYNRLLAIEDIDPTLVYIQYMKFARRAEGIKSGRMIFKKAREDARTRHHVYVTAALMEYYCSKDKSVAFKIFELGLKKYGDIPEYVLAYIDYLSHLNEDNNTRVLFERVLTSGSLPPEKSGEIWARFLAFESNIGDLASILKVEKRRFTAFREEYEGKETALLVDRYKFMDLYPCSASELKALGYKDV,soluble
2,MGSDKIHHHHHHMRIAQVAPLWERVPPPAYGGIELVVGLLTDELVRRGHEVTLFASGDSISLAKLVSVHPRALRLDRTIKDYSVYETLNLASAYERAEEFDIIHSHIGHGALAYANLVTTPTVHTLHGIFTSDNEKMFSFGKKQPYVSISDAQREPRLGLNCIATVYNGIDVSSYNFHAQPEDPPYLAFLGRMSPEKGAHLAIEIAKQAGWCLKMAGKVDVVDVEYFEKEIKPHIDGEQIQYLGEANHAQKNALMGGAFATLFPITWREPFGLVMVESMASGTPVIAMNLGSTEEVISHGKTGFLCNNLQECISAVDRVIELDRYTCRQYVEDLFSVEQMTDGYEAVYQKIIAERFSRNGHSRNLIALSSDRI,not soluble
3,MVRIYTLTLAPSLDSATITPQIYPEGKLRCSAPVFEPGGGGINVARAIAHLGGTATAIFPAGGATGEHLVALLADENVPVSTVDAKDWTRQNLHVHVESSGEQYRFVMPGATLDDDEFRQLEEQVLEIESGAILVISGSLPPGVKVEKLTQLISAAQKQGIRCIIDSSGDALTAALALGDIELVKPNLKELSALVNRDLTQPDDVRKAAQELVQSGKARRVVVSLGPQGALGIDSENCIQVVPPPVKSQSTVGAGDSMVGAMTLKLAQDASLEEMVRFGVAAGSAATLNQGTRLCSRDDTQKIYAYLSAQ,not soluble
4,MSLHQRILSEVEGHILSGDWPPGYRIPFEHELTEQYGCSRMTVNKALSELVKRGLIERRRKSGSYVSFPQVQSAVMEIHDVKREVQSLGLDYAYRLGERAVRKMRAGDEGRIDLPVSSRLLDVTCRHFAGGRVFCLEERVINLSAVPEAETETFETAAPGSWLLGKVPWSTAEHRIRAVAASRPTAQALEIAVGAACLVIERRTWSGGVPVTSVLLTYPGDRHELVAEFAPSAPA,not soluble
5,MAKEKKRGFFSWLGLGRQSEEPAAEPLATEKEGVTEQEDVIEQTGVIEPTDVIEQTVEHVISEKTTEAPAENAFIEVELREQVAAVIPTEPNNAIMSEGVPDTLPERAVAESVVAELVETGDNAAIVHDEIIEPITQVTEAGGELSLVKPGIEGDTTEQGGPTDNLPKRSLTEDNLIIDVPTPQAVVEESRVDAVEQPTETSEVEEVEEVEEVEEVEEVEEKIIPVAAQEQERPTKEGFFARLKRSLIKTKQNLGSGFMGLFSGKKIDDDLFEELEEQLLIADVGVETTRKIITSLTEHTSRKQLKDADALYGKLKEEMSEILSKVDKPLDVSGKSPYVILMVGVNGVGKTTTIGKLARQFQAEGKSVMLAAGDTFRAAAVEQLQVWGERNKIAVVAQHTGADSASVIFDAIQAAKARGIDVLLADTAGRLQNKAHLMEELKKIVRVMKKLDGDAPHEVMLTLDASTGQNAVSQAKLFNEAVGLTGITLTKLDGTAKGGVIFAIADQFEIPIRYIGVGEGIEDLRPFKADEFIEALFARED,not soluble
6,MSIMLPINNNFSLSQNSFYNTISGTYADYFSAWDKWEKQALPGENRNEAVSLLKECLINQFSELQLNRLNLSSLPDNLPPQITVLEITQNALISLPELPASLEYLDACDNRLSTLPELPASLKHLDVDNNQLTMLPELPALLEYINADNNQLTMLPELPTSLEVLSVRNNQLTFLPELPESLEALDVSTNLLESLPAVPVRNHHSEETEIFFRCRENRITHIPENILSLDPTCTIILEDNPLSSRIRESLSQQTAQPDYHGPRIYFSMSDGQQNTLHRPLADAVTAWFPENKQSDVSQIWHAFEHEEHANTFSAFLDRLSDTVSARNTSGFREQVAAWLEKLSASAELRQQSFAVAADATESCEDRVALTWNNLRKTLLVHQASEGLFDNDTGALLSLGREMFRLEILEDIARDKVRTLHFVDEIEVYLAFQTMLAEKLQLSTAVKEMRFYGVSGVTANDLRTAEAMVRSREENEFTDWFSLWGPWHAVLKRTEADRWALAEEQKYEMLENEYPQRVADRLKASGLSGDADAEREAGAQVMRETEQQIYRQLTDEVLALRLPENGSQLHHS,soluble
7,MGSDKIHHHHHHMLENRVKTKQIFIGGVAIGGDAPISTQSMTFSKTADIESTKNQIDRLKLAGADLVRVAVSNEKDALALKELKKVSPLPLIADIHFHYKFALIAAQSVDAIRINPGNIGSKEKIKAVVDACKEKNIPIRIGVNAGSLEKQFDQKYGPTPKGMVESALYNAKLLEDLDFTNFKISLKASDVIRTIEAYRMLRPLVIYPFHLGVTEAGNLFSSSIKSAMALGGLLMEGIGDTMRVSITGELENEIKVARAILRHSGRLKEGINWISCPTCGRIEANLVDMAIKVEKRLSHIKTPLDISVMGCVVNALGEAKHADMAIAFGNRSGLIIKEGKVIHKLAEKDLFETFVIEVENLAKEREKSLKD,not soluble
8,MDTDNNLTFVDFYYRWLEITKLDIINDTSYKRYITAIKAFKDCFGNKLISDIDSLSYQKFLKDYGRGHFLNNGQLRPRTSNTVSKMNNCLKQAFESAVEQGYIKKNLEHHHHHH,not soluble
9,MRMIPIKIWAADVDVSIGYRAPRAASNTLGIFSYSAEYTLCTLPISNMTSQSVMFKGGLPADCTCPICEQALRDPIKLNCDHHYCRQCFENENRTPGCAACQTIIQPELCQHDRAKQKQILALPVVCTFESSGCPWDGQLGTLHDHLSECTFKSSLKCEKCGRQFAKNDLEKHRAKCELNRAVCSFCNKTIRDSDRERHPKTCPQVIISCPFQCGLTDRPRLEIEAHCPSCPNVDNVCPFVPYGCTFAGGKESIQQHLSDEPVRHLMYLCDEITDLKGTYELMERDMGSFNDRQTRILSAAETCTEMFGPQLIWKIDKLQQRTNEAKSGADTTIFSVPFMSHRFGYKMMACACLFGDGSSAGKSISLYVLLLKGEFDPTLEWPFHRAIKISLLDQNPRPEDRVNITYVIDPRKLKANEKFLARPRGERNAAFGSQSFCSLAILQNYVKDDKIYVQIDVDRCETLPVQLKSRDAKERKQMLDAMRAKTPDVRLHQVRPVTSQSSSAELRV,not soluble
10,MSLGQKGHKDSLYPCGGTPESSLHEALDQCMTALDLFLTNQFSEALSYLKPRTKESMYHSLTYATILEMQAMMTFDPQDILLAGNMMKEAQMLCQRHRRKSSVTDSFSSLVNRPTLGQFTEEEIHAEVCYAECLLQRAALTFLQDENMVSFIKGGIKVRNSYQTYKELDSLVQSSQYCKGENHPHFEGGVKLGVGAFNLTLSMLPTRILRLLEFVGFSGNKDYGLLQLEEGASGHSFRSVLCVMLLLCYHTFLTFVLGTGNVNIEEAEKLLKPYLNRYPKGAIFLFFAGRIEVIKGNIDAAIRRFEECCEAQQHWKQFHHMCYWELMWCFTYKGQWKMSYFYADLLSKENCWSKATYIYMKAAYLSMFGKEDHKPFGDDEVELFRAVPGLKLKIAGKSLPTEKFAIRKSRRYFSSNPISLPVPALEMMYIWNGYAVIGKQPKLTDGILEIITKAEEMLEKGPENEYSVDDECLVKLLKGLCLKYLGRVQEAEENFRSISANEKKIKYDHYLIPNALLELALLLMEQDRNEEAIKLLESAKQNYKNYSMESRTHFRIQAATLQAKSSLENSSRSMVSSVSEGHHHHHH,soluble
11,MNQQTVNVIGAGLAGSEAAWQLAKRGIQVKLYEMRPVKQTPAHHTDKFAELVCSNSLRSNTLANAVGVLKEEMRALDSAIIAAADECSVPAGGALAVDRHEFAASVTNRVKNHPNVTVINEEVTEIPEGPTIIATGPLTSESLSAQLKELTGEDYLYFYDAAAPIVEKDSLDMDKVYLKSRYDKGEAAYLNCPMTEEEFDRFHEALTSAETVPLKEFEKEIFFEGCMPIEVMAKRGKKTMLFGPMKPVGLEHPVTGKRPYAVVQLRQDDAAGTLYNIVGFQTHLKWGDQKEVLKLIPGLENVEIVRYGVMHRNTFINSPSLLKPTYQFKNRSDLFFAGQMTGVEGYVESAASGLVAGINAAKLVLGEELVIFPQETAIGSMAHYITTTNQKNFQPMNANFGLLKELPVKIKNKKERNEQYANRAIETIQTISKTILEHHHHHH,soluble
12,MSLIIRLNFITKYKVDMKRSHLSLIACLLASTQAYALSTDREQPVYIDSDSQQLDMKSNRVTFLGDVKLKQGSININADKLIVIRNAENGKIEEIEGYGNVATFSQLTDEGKTLYGEAKELYYKVRDDELVMINKAMLSQDDSEIRGSKIRYKISLQKLIADSDGKGRVSTVLQPQAIQEEGHHHHHH,soluble
13,MTPQELNAECHACDKTPPAANTYKGWSGFVGLAAQLNQAWRVGYDITSGYRVPNASEVYFTYNHGSGNWLPNPNLKAERSTTHTLSLQGRSEKGMLDANLYQSNYRNFLSEEQKLTTSGTPGCTEENAYYGICSDPYKEKLDWQMKNIDKARIRGIELTGRLNVDKVASFVPEGWKLFGSLGYAKSKLSGDNSLLSTQPLKVIAGIDYESPSEKWGVFSRLTYLGAKKVKDAQYTVYENKGWGTPLQKKVKDYPWLNKSAYVFDMYGFYKPAKNLTLRAGVYNLFNRKYTTWDSLRGLYSYSTTNAVDRDGKGLDRYRAPGRNYAVSLEWKF,not soluble
14,DVFQNKANVCWAKALVPVLKTAGIDMTTEQWNTVDYFETDKAHSAEIVLNQLCVRFFGLDLDSGLFSAPTVPLSIRNNHWDNSPSPNMYGLNKEVVRQLSRRYPQLPRAVATGRVYDMNTGTLRNYDPRINLVPVNRRLPHALVLHHNEHPQSDFSSFVSKLKGRTVLVVGEKLSVPGKMVDWLSDRPEATFRARLDLGIPGDVPKYDIIFVNVRTPYKYHHYQQCEDHAIKLSMLTKKACLHLNPGGTCVSIGYGYADRASESIIGAIARQFKFSRVCKPKSSLEETEVLFVFIGYDRKARTHNPYKLSSTLTNIYTGS,soluble
15,MNEYFFPKLTAVEALAPYRLRTTWSTGEVLEVDVGDILRKIPDLAPILDPEAFARVHIAEWEGSVEWFDTEFGRDNVYAWAKEQAGEVSHEMFGDWMHRNNLSLTTAAEALGISRRMVSYYRTAHKIIPRTIWLACLGWEATRPETKTLPRTLPAAYAKGVSASLS,soluble
16,GPGSMLKFRLPYTHKKIGFGDSSRKVNSSLIGPDGTVNYLRGDILLPIWTRPTSTEGRLVVPRGAHRVPYKVAQVENCFFFFNARVREQVHFNHILLPDENLDHHYDAAAEVNCLLKYLQFLHPELREASAAVLRREVKHISTSITAHLRVNFQDVVRRREYLLLKQARSGQSEEEGDESDNEAVDADTAPNCGAQLGSSWETFAKEIIQAASKERARVVWRRNVEETGSDVRSGFWVTTIMRQ,not soluble
17,AHHHHHHGSHKLKVSVSFSYGKKEIVKNVEFEGKVGEIIAIIGPNGAGKSTLLKCIAGILKPRGIIEYNGIDLTKLKPKERAKIVGYVPQSSYPEFAFTVEEFVELGTYAGKGDVDEAIRRVGLWEKRKEFITNLSGGEYQLTLIARALAQGGDIMLLDEPTSHLDINHTREIMEILQELKKEKLIIAVFHDLNLAINYADEIIVLKNGETAWKGKSKEISEEVIEATYGIKPRIVREDGIVAVLP,soluble
